Tests used:
Assay in all cases: EMSA
TLS = TLS (UniProt P35637 1-526)
GST-TLS 211-526 = GST-TLS 211-526 (UniProt P35637 211-526)
GST-TLS 373-526 = GST-TLS 373-526 (UniProt P35637 373-526)
Sequence of GST-TLS 373-526 (P35637 373-526): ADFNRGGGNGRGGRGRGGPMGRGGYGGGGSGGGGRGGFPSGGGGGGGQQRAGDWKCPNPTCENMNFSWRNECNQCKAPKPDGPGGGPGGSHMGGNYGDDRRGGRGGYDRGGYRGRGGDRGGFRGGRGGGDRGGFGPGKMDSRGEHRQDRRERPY

Sequence of TLS (P35637 whole entry): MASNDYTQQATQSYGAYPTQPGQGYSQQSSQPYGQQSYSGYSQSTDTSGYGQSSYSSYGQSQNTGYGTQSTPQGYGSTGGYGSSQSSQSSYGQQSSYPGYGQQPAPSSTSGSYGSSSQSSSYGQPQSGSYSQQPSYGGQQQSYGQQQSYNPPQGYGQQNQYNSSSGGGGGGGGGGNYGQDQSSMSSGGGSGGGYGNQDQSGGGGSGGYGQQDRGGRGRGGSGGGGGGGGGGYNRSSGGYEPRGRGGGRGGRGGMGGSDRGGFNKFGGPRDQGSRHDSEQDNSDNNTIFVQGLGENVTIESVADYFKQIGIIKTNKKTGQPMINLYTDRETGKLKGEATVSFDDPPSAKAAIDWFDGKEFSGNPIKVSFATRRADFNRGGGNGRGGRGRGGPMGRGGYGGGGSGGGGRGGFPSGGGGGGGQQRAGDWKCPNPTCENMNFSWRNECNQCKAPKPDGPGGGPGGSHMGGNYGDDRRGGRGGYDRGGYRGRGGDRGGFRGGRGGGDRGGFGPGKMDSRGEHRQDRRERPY
Sequence of GST-TLS 211-526 (P35637 211-526): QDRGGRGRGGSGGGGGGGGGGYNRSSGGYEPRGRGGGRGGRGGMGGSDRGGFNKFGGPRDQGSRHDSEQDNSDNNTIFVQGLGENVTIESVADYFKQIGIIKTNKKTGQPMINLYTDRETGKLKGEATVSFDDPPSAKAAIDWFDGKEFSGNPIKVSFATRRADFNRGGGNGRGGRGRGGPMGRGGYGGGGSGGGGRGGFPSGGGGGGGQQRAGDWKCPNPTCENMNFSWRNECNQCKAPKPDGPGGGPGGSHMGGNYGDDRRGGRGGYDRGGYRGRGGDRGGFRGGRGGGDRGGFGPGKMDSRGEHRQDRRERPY

B1: RNA:DNA hybrid of -454s (DNA:RNA)
RNA: UCUGCCGGCUUGGAUAUGGGGUGUC
DNA: GACACCCCATATCCAAGCCGGCAGA
B1: no binding (TLS).

B2: GGUG-oligonucleotide (ssRNA)
RNA: UUGUAUUUUGAGCUAGUUUGGUGAC
B2: binds (GST-TLS 211-526); binds (TLS); binds (GST-TLS 373-526).

B3: DNA (complement of -454s) (ssDNA)
DNA: GACACCCCATATCCAAGCCGGCAGA
B3: no binding (TLS).

B4: β-actin RNA (ssRNA)
RNA: UGGCAUCGUGAUGGACUCCGGUGAC
B4: no binding (TLS).

B5: -454s (RNA in Fig. 4g) (ssRNA)
RNA: UCUGCCGGCUUGGAUAUGGGGUGUC
B5: binds (TLS).

B6: -341a (ssRNA)
RNA: CCCGGGAUUUAGGGGGUGAGGUGGA
B6: binds (TLS).

B7: -764a (ssRNA)
RNA: UCCAGCAGCAGCCCAAGAUGGUGGC
B7: no binding (TLS).

Reference: publication PMC2823488
